The numbers were not newly measured in publication PMC9775385, which cites them from elsewhere.

In the data set the target is Nter-BsRNaseY N-terminal domain (Bacillus subtilis) (UniProt O31774).

Regarding “Nter-BsRNaseY N-terminal domain (from UniProt O31774)”, the equilibrium dissociation constant (Kd) was 1300 nM.
